Test results as given in US20240100181A1 (AbbVie / Abbott, published 2024).

Assays:
[1] = biological target: T1, human CD19 (human, UniProt P15391 20-556); test: cell-based or functional assay
T1 sequence (looked up): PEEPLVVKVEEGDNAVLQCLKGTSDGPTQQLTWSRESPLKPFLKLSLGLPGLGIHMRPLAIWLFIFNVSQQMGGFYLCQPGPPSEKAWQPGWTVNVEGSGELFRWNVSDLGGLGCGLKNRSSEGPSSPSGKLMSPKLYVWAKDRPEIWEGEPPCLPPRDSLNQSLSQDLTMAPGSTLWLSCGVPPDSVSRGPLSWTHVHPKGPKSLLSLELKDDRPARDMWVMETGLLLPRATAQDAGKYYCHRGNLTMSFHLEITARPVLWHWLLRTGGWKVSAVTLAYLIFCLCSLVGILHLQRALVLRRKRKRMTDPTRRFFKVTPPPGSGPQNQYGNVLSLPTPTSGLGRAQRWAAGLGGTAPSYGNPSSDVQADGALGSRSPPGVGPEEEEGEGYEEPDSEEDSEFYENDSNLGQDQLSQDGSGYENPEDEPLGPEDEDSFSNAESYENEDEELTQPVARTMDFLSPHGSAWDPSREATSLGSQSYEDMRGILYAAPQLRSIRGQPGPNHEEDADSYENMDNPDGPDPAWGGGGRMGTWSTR

[2] = biological target: FcγRIIIa F158 variant (low-affinity allotype) (human, UniProt P08637 17-254); test: cell-based or functional assay
Sequence of FcγRIIIa F158 variant (low-affinity allotype) (P08637 17-254, change not shown): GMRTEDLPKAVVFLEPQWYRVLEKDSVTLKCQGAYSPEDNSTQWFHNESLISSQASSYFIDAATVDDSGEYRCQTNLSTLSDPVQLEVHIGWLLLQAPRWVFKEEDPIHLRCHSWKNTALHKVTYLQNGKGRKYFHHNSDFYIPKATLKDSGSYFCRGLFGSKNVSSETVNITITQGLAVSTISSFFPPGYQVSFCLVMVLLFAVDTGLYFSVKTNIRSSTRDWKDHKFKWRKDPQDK

[3] = biological target: FcγRIIIa V158 variant (high-affinity allotype) (human, UniProt P08637 17-254); test: cell-based or functional assay
Sequence of FcγRIIIa V158 variant (high-affinity allotype) (P08637 other isoform, or with tags, fused parts or gaps mutant limits assumed): as the sequence (P08637 17-254, change not shown) above, with F160V counted along it

[4] = biological target: T1, human CD19; test: cell-based or functional assay; remark: listed apart in the source
[5] = biological target: T1, human CD19; test: flow cytometry on SUP-B15 (ALL) cells, endogenous CD19; average of two experiments
[6] = biological target: T1, human CD19; test: flow cytometry on Raji (BL) cells, endogenous CD19; average of two experiments
[7] = biological target: T1, human CD19; test: flow cytometry on RS4; 11 (ALL) cells, endogenous CD19; average of two experiments
[8] = biological target: T1, human CD19; test: flow cytometry on OCI-LY19 (DLBCL) cells, endogenous CD19; average of two experiments

B1: ADC-1 (CD19 Phosphorylated GRM agonist ADC: CD19 mAb conjugated to the drug linker of Formula V) (other)
heavy: EVQLVESGGGLVQPGGSLRLSCAASGFTFTTYWINWVRQAPGKGLEWIGNIYPSDSYTNYNQKFKDRATLSVDKSKNTAYLQMNSLRAEDTAVYYCTREDYYGSSSYYAMDYWGQGTLVTVSSASTKGPSVFPLAPSSKSTSGGTAALGCLVKDYFPEPVTVSWNSGALTSGVHTFPAVLQSSGLYSLSSVVTVPSSSLGTQTYICNVNHKPSNTKVDKKVEPKSCDKTHTCPPCPAPELLGGPSVFLFPPKPKDTLMISRTPEVTCVVVDVSHEDPEVKFNWYVDGVEVHNAKTKPREEQYNGSTYRVVSVLTVLHQDWLNGKEYKCKVSNKALPAPIEKTISKAKGQPREPQVYTLPPSREEMTKNQVSLTCLVKGFYPSDIAVEWESNGQPENNYKTTPPVLDSDGSFFLYSKLTVDKSRWQQGNVFSCSVMHEALHNHYTQKSLSLSPGK
light: AILMTQSPSSLSASVGDRVTITCKASQDVGTAVAWYQQKPGKAPKLLIYWASTRHTGVPSRFSGSGSGTDFTLTISSLQPEDFATYYCQQYSTYPLTFGQGTKVEIKRTVAAPSVFIFPPSDEQLKSGTASVVCLLNNFYPREAKVQWKVDNALQSGNSQESVTEQDSKDSTYSLSSTLTLSKADYEKHKVYACEVTHQGLSSPVTKSFNRGEC
modifications: zero or one phosphate-GRM drug linker molecule (Formula V) attached via cysteine -S-; cysteine position not stated; afucosylated at ASN-300 (EU: ASN-297); zero, one, two or three phosphate-GRM drug linker molecules (Formula V, Ala-Ala linker) attached via cysteine -S-; cysteine positions not stated
**Q.** With B1 as the binder, how does the “anti-proliferative assay EC50, KARPAS422 (DLBCL)” value [1] read?
**A.** 210 pM

**Q.** What about the “anti-proliferative assay EC50, OCI-LY19 (DLBCL)” value [1] of the same binder?
**A.** 103000 pM

**Q.** And the “anti-proliferative assay EC50, RS4; 11 (ALL)” value [1]?
**A.** 82 pM

**Q.** And the “anti-proliferative assay EC50, SU-DHL-6 (DLBCL)” value [1]?
**A.** 311 pM

**Q.** And the “anti-proliferative assay EC50, SUP-B15 (ALL)” value [1]?
**A.** 321 pM

**Q.** What about the “ADCC NFAT reporter activation (Jurkat reporter cells, Raji target cells)” value (“ADCC NFAT reporter activation” for short) [2] of the same binder?
**A.** 0.018 nM

**Q.** And the “ADCC NFAT reporter activation” value [3]?
**A.** 0.017 nM

**Q.** And the “PBMC co-culture ADCC, specific lysis EC50 (RS4; 11, Raji, KARPAS422)” value [4]?
**A.** 70 to 142 pM

B2: CD19 mAb (humanized, afucosylated anti-CD19 IgG1 kappa monoclonal antibody of Example 1) (antibody)
heavy: B1 heavy
light: B1 light
modifications: afucosylated N-glycan at ASN-300 (EU: ASN-297), greater than or equal to 90% afucosylated
notes: Human IgG1, kappa; Made in CHO cells expressing Pseudomonas RMD; also called CD19 antibody; humanized anti-CD19 antibody
**Q.** With B2 as the binder, how does the EC50 [5] read?
**A.** 683 pM

**Q.** And the “ADCC NFAT reporter activation” value [2]?
**A.** 0.023 nM

**Q.** What about the “ADCC NFAT reporter activation” value [3] of the same binder?
**A.** 0.027 nM

**Q.** What about the EC50 [6] of the same binder?
**A.** 713 pM

**Q.** What about the EC50 [7] of the same binder?
**A.** 401 pM

**Q.** What about the EC50 [8] of the same binder?
**A.** 836 pM
